Patent US20060165695A1 (Kyowa Kirin, published 2006)

Columns and labels:
[1] = molecular target: T1, hIGF-I partial peptide p1-18 (human); test: competitive ELISA: KM1468 (4.0 µg/ml) on immobilised methylated BSA-hIGF-I, peptide as competitor
T1 peptide: GPETLSGAELVDALQFVC

[2] = molecular target: T2, hIGF-I partial peptide p29-41 (human); test: as above
T2 peptide: CTGYGSSSRRAPQT

[3] = molecular target: T3, hIGF-I partial peptide p52-70 (human); test: as above
T3 peptide: CDLRRLEMYAAPLKPAKSA

[4] = molecular target: T4, hIGF-I partial peptide p14-30 (human); test: as above
T4 peptide: CLQFVAGDRGFYFNKPTG

[5] = molecular target: T5, hIGF-I partial peptide p36-47 (human); test: as above
T5 peptide: RRAPQTGIVDEC

[6] = molecular target: T6, hIGF-I partial peptide p41-56 (human); test: as above
T6 peptide: CTGIVDEAAFRSADLRR

[7] = molecular target: T7, hIGF-I partial peptide p61-70 (human); test: as above
T7 peptide: CAPLKPAKSA

[8] = molecular target: T8, hIGF-I partial peptide p41-56C (human); test: as above
T8 peptide: CTGIVDECCFRSCDLRR

[9] = molecular target: T9, hIGF-I partial peptide p53-61 (human); test: as above
T9 peptide: DLRRLEMYC

[10] = molecular target: T10, hIGF-I partial peptide p24-35 (human); test: as above
T10 peptide: CYFNKPTGYGSSS

[11] = molecular target: T11, human insulin-like growth factor I (hIGF-I) (human, UniProt P05019 49-118); test: SPR (Biacore 2000), hIGF-I amine-coupled to CM-5 chip, antibody as analyte, 25 °C; KA=Kass/Kdiss
T11 construct: mature; In the ELISAs it was immobilised as a conjugate with methylated BSA; In SPR it was amine-coupled to the chip; also called human IGF-I; recombinant hIGF-I
T11 sequence (P05019 49-118): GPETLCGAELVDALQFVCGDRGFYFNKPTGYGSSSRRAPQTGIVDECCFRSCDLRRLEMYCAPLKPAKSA
Method: (§1) In order to analyze binding activity of the anti-hIGF antibody KM1468 to an antigen hIGF-I or hIGF-II, binding strengths of the anti-hIGF antibody KM1468, a commercially available anti-hIGF-I antibody sm1.2 and a commercially available anti-hIGF-II antibody S1F2 to hIGF-I and hIGF-II were measured in the following manner using the biosensor Biacore 2000 (manufactured by BIACORE) use of a surface plasmon resonance. HBS-EP (10 mM HEPES, 150 mM NaCl, 3 mM EDTA, 0.005% Tween 20, pH 7.4) (manufactured by BIACORE) was used for the dilution of analytes and as the reaction buffer.
(§2) The reaction was carried out at 25° C. Association rate constant Kass and dissociation constant Kdiss were calculated from the binding reaction curves at respective concentrations, and the binding constant KA (M⁻¹) of each of these antibodies was calculated. The binding constant KA is calculated by KA=Kass/Kdiss.

[12] = molecular target: T12, human insulin-like growth factor II (hIGF-II) (human, UniProt P01344 25-91); test: SPR (Biacore 2000), hIGF-II amine-coupled to CM-5 chip, antibody as analyte, 25 °C; KA=Kass/Kdiss
T12 construct: In the ELISA it was immobilised as a conjugate with methylated BSA; In SPR it was amine-coupled to the chip; also called human IGF-II; methylated BSA-hIGF-II (immobilised conjugate)
T12 sequence (P01344 25-91 limits assumed): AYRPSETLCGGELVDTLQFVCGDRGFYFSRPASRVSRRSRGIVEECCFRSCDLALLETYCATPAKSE
Method: as §1, §2

[13] = molecular target: T13, human insulin (manufactured by Wako Pure Chemical Industries) (human, UniProt P01308 25-54; P01308 90-110); test: competitive ELISA: KM1468 (0.6 µg/ml) on immobilised methylated BSA-hIGF-I or methylated BSA-hIGF-II, insulin as competitor
T13 construct: Bought reagent
T13 sequence (P01308 25-54 limits assumed, chain 1 of 2): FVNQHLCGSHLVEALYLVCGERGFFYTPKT
T13 sequence (P01308 90-110 limits assumed, chain 2 of 2): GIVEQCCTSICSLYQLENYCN
From the text: Cross reactivity of the purified anti-hIGF antibody KM1468 with hIGF-II and human insulin was examined by the competitive ELISA shown below. As the antigens, hIGF-I (manufactured by Pepro Tech), hIGF-II (manufactured by Pepro Tech) and human insulin (manufactured Wako Pure Chemical Industries) were used.
The methylated BSA-hIGF-I antigen prepared in Example 1(1) or a methylated BSA-hIGF-II antigen prepared in the same manner as in Example 1(1) was immobilized on a plate in accordance with the method shown in Example 1(4), at a concentration of 0.1 μg/ml in the case of the methylated BSA-hIGF-I antigen, or at a concentration of 1.0 μg/ml in the case of the methylated BSA-hIGF-II antigen, KM1468 diluted to 0.6 μg/ml was dispensed therein in 25 μl/well portions, and then each of 4-fold serial dilutions of hIGF-I, hIGF-II or human insulin prepared by starting from 20 μg/ml was dispensed in 25 μl/well portions, mixed and allowed to react at room temperature for 1 hour. After the reaction and subsequent washing with Tween-PBS, 1,000 times-diluted peroxidase-labeled rabbit anti-rat Ig antibody (manufactured by DAKO) was added in 50 μl/well portions as the secondary antibody in the case of the anti-hIGF antibody KM1468. […] The results are represented by relative values (%) wherein OD415 when an antibody alone is added is defined as 100.

[14] = molecular target: T12, human insulin-like growth factor II …; test: SPR (Biacore 2000), ratio of KA values
Method: as §1, §2

[15] = molecular target: T11, human insulin-like growth factor I …; test: SPR (Biacore 2000), ratio of KA values
Method: as §1, §2

B1: anti-hIGF rat monoclonal antibody KM1468 (antibody, V domains shown)
VH: EVHLVESGGGLVQPGRSLKLSCAASGFTFSNYYMTWVRQAPTKGLEWVAYISSGGGSTYYRDSVKGRFTISRDNAKSTLYLQMDSLRSEDTATYYCTTEDYGYWFAYWGQGTLVTVSS
VL: EIVLTQSPTTMAASPGEKVTITCRASSSVSYMHWFQQKSGTSPKPWIYGTSKLASGVPDRFSGSGSGTSYSLTISSMEAEDAATYYCLQRSSYPPTFGAGTKLELKR
notes: Rat IgG2b with kappa L chain, purified from ascites; The ranges 20-137 and 23-129 are counted from the first residue of the entry; also called anti-hIGF antibody KM1468; anti-hIGF rat antibody KM1468
binding result [1]: no binding | binding result [2]: no binding | binding result [3]: no binding | binding result [4]: no binding | binding result [5]: no binding | binding result [6]: no binding | binding result [7]: no binding | binding result [8]: no binding | binding result [9]: no binding | binding result [10]: no binding | Ka [11]: 7.86e+09 M⁻¹ | Ka [12]: 8.63e+09 M⁻¹ | binding result [13]: no binding | fold KA versus S1F2 [14]: ~3.6 fold | fold KA versus sm1.2 [14]: ~120 fold | fold KA versus S1F2 [15]: ~18 fold | fold KA versus sm1.2 [15]: ~42 fold
